We go through two substances from paper PMC10519987.

The target of assay [1] is carboxy-terminal domain of Saccharomyces cerevisiae RNA polymerase II subunit RPB1 (yCTD) (Saccharomyces cerevisiae). The assay can be described thus: dynamic light scattering + microscopy; tag-free CTD alone, no crowding agents; 25 mM HEPES, 1.0 mM TCEP, pH 7.4 (also pH 6.2), 50-1000 mM NaCl, rising temperature; self-coacervation into droplets.
The target in assay [2] is carboxy-terminal domain of human RNA polymerase II subunit RPB1 (hCTD) (human) (UniProt P24928). The description is as above.

Regarding “carboxy-terminal domain of Saccharomyces cerevisiae RNA polymerase II subunit RPB1 (yCTD) (domain or fragment)”, the minimal concentration of droplet formation in assay [1] came out at 100 µM. Consider “carboxy-terminal domain of human RNA polymerase II subunit RPB1 (hCTD) (from UniProt P24928 1593-1970) (domain or fragment)”, for which the minimal concentration of droplet formation in assay [2] came out at 25 µM.
